Paper PMC2844805

Key:
[1] = system: O=P(O)(O)OC[C@@H](O)[C@H]1O[C@@H](OP(=O)(O)O)[C@@H](O)[C@@H](O)[C@@H]1O; assay: steady-state kinetics; type: biochemical, Bordetella bronchiseptica; conditions: Mg2+; pH 7.5; 25.0 °C
[2] = system: O=P(O)(O)OC[C@@H](O)[C@H]1O[C@H](OP(=O)(O)O)[C@@H](O)[C@@H](O)[C@@H]1O; assay: steady-state kinetics; type: biochemical, Bordetella bronchiseptica; conditions: Mg2+; pH 7.5; 25.0 °C
steady-state kinetics [3] = substrate: O=P(O)(O)OC[C@@H](O)[C@H]1O[C@@H](OP(=O)(O)O)[C@@H](O)[C@@H](O)[C@@H]1O; assay: steady-state kinetics; type: biochemical, Bacteroides thetaiotaomicron; conditions: Mg2+; pH 7.5; 25.0 °C
steady-state kinetics [4] = substrate: O=P(O)(O)OC[C@@H](O)[C@H]1O[C@H](OP(=O)(O)O)[C@@H](O)[C@@H](O)[C@@H]1O; assay: steady-state kinetics; type: biochemical, Bacteroides thetaiotaomicron; conditions: Mg2+; pH 7.5; 25.0 °C
steady-state kinetics [5] = substrate: O=P(O)(O)OC[C@@H](O)[C@H]1O[C@@H](OP(=O)(O)O)[C@@H](O)[C@@H](O)[C@@H]1O; assay: steady-state kinetics; type: biochemical, Mesorhizobium japonicum; conditions: Mg2+; pH 7.5; 25.0 °C
steady-state kinetics [6] = substrate: O=P(O)(O)OC[C@@H](O)[C@H]1O[C@H](OP(=O)(O)O)[C@@H](O)[C@@H](O)[C@@H]1O; assay: steady-state kinetics; type: biochemical, Mesorhizobium japonicum; conditions: Mg2+; pH 7.5; 25.0 °C
purified protein [7] = substrate: O=P(O)(O)OC[C@@H](O)[C@H]1O[C@@H](OP(=O)(O)O)[C@@H](O)[C@@H](O)[C@@H]1O; assay: purified protein; type: biochemical, Escherichia coli; conditions: Mg2+ C([…])phosphate selectively removed; pH 7.5; 25.0 °C
purified protein [8] = substrate: O=P(O)(O)OC[C@@H](O)[C@H]1O[C@H](OP(=O)(O)O)[C@@H](O)[C@@H](O)[C@@H]1O; assay: purified protein; type: biochemical, Escherichia coli; conditions: Mg2+ C([…])phosphate selectively removed; pH 7.5; 25.0 °C

In the case of “D-glycero-D-manno-heptose-1β,7-bisphosphate phosphatase (GmhB) (Bordetella bronchiseptica RB50)”, the Km [1] is reported as 6.9 ± 0.5 µM, the kcat [1] is reported as 22 ± 0.5 s⁻¹ and the kcat/Km [1] is reported as 3.2e+06 M⁻¹ s⁻¹. It also gave a Km [2] of 280 ± 30 µM, a kcat [2] of 5.9 ± 0.2 s⁻¹ and a kcat/Km [2] of 21000 M⁻¹ s⁻¹.

B1: D-glycero-D-manno-heptose-1,7-bisphosphate phosphatase (GmhB) (Bacteroides thetaiotaomicron VPI-5482) (protein)
chain: MRLQDIDVTGFETLLLDRDGVVNRLRPDDYVKKWEEFEFLPGVLEILKAWNTHFKYIFIVTNQRGVGKEIMSEEDLKHIHERMISEVKNYGGRIDRIYYCTALTDSDINRKPGIGMFLQILRDYPDIDKAKCLMIGDSDSDIKFAKNCGIVGIKVI
B1 gave a Km (steady-state kinetics [3]) of 86 ± 1 µM, a kcat (steady-state kinetics [3]) of 13 ± 1 s⁻¹ and a kcat/Km (steady-state kinetics [3]) of 150000 M⁻¹ s⁻¹. For the same molecule, the Km (steady-state kinetics [4]) was 33 ± 1 µM, the kcat (steady-state kinetics [4]) was 29 ± 1 s⁻¹ and the kcat/Km (steady-state kinetics [4]) was 880000 M⁻¹ s⁻¹.

B2: D-glycero-D-manno-heptose-1,7-bisphosphate phosphatase (GmhB) (Mesorhizobium japonicum MAFF 303099) (protein)
chain: MADKTGTPHPLTEPGVWIERIGGRVFPPHLPALFLDRDGTINVDTDYPSDPAEIVLRPQMLPAIATANRAGIPVVVVTNQSGIARGYFGWSAFAAVNGRVLELLREEGVFVDMVLACAYHEAGVGPLAIPDHPMRKPNPGMLVEAGKRLALDLQRSLIVGDKLADMQAGKRAGLAQGWLVDGEAAVQPGFAIRPLRDSSELGDLLAAIETLGRDNRS
B2 showed a Km (steady-state kinetics [5]) of 13 ± 0.2 µM, a kcat (steady-state kinetics [5]) of 18 ± 0.2 s⁻¹ and a kcat/Km (steady-state kinetics [5]) of 1.4e+06 M⁻¹ s⁻¹. The Km (steady-state kinetics [6]) was 58 ± 1 µM, the kcat (steady-state kinetics [6]) was 4.4 ± 0.1 s⁻¹ and the kcat/Km (steady-state kinetics [6]) was 76000 M⁻¹ s⁻¹.

B3: D-glycero-D-manno-heptose-1,7-bisphosphate phosphatase (GmhB) (Escherichia coli K-12) (protein)
chain: MAKSVPAIFLDRDGTINVDHGYVHEIDNFEFIDGVIDAMRELKKMGFALVVVTNQSGIARGKFTEAQFETLTEWMDWSLADRDVDLDGIYYCPHHPQGSVEEFRQVCDCRKPHPGMLLSARDYLHIDMAASYMVGDKLEDMQAAVAANVGTKVLVRTGKPITPEAENAADWVLNSLADLPQAIKKQQKPAQ
Work on B3 yielded a Km (purified protein [7]) of 5.0 ± 0.1 µM, a kcat (purified protein [7]) of 35.7 ± 0.2 s⁻¹ and a kcat/Km (purified protein [7]) of 7e+06 M⁻¹ s⁻¹. It also gave a Km (purified protein [8]) of 67 ± 1 µM, a kcat (purified protein [8]) of 4.6 ± 0.1 s⁻¹ and a kcat/Km (purified protein [8]) of 70000 M⁻¹ s⁻¹.
